Molecular target: GST-tagged Nedd4-2, full length (mouse)
Experiment: pull-down

Chain of GST-tagged Nedd4-2, full length (mouse) (Q8CFI0 whole entry): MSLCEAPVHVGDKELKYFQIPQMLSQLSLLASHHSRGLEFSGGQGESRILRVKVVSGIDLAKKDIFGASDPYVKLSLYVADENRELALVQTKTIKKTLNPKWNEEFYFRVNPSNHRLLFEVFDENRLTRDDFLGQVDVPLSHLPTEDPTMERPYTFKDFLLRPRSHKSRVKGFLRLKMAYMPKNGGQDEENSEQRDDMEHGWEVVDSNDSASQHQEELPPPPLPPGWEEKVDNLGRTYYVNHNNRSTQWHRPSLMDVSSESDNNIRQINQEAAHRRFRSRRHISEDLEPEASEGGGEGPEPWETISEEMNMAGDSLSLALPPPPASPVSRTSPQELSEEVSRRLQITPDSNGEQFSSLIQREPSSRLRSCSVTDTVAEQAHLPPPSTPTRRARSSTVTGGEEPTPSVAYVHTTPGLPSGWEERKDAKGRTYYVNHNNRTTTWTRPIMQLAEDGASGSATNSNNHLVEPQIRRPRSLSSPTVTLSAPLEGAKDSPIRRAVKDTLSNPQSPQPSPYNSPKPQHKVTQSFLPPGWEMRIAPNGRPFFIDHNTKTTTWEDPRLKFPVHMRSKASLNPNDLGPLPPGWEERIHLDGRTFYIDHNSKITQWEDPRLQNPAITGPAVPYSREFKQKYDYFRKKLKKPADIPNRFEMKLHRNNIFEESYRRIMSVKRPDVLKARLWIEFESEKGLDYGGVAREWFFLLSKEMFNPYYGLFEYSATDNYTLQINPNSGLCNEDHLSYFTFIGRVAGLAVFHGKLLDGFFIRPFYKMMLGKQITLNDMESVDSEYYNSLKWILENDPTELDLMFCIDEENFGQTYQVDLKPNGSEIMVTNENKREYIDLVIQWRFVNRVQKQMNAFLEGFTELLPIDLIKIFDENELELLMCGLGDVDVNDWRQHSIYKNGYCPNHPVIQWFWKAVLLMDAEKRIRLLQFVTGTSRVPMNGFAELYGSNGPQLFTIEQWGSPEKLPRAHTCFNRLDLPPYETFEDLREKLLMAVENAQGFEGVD

Which fold bound against GST-N4-1 does the source give for “HA-tagged Connexin43 (gap junction alpha 1 protein) (from UniProt P23242 1-382) (natural protein)” here?
The fold bound against GST-N4-1 was 2 fold.

B1: HA-tagged Kir4.1 (inwardly rectifying K+ channel 4.1) (natural protein)
chain: MTSVAKVYYSQTTQTESRPLVAPGIRRRRVLTKDGRSNVRMEHIADKRFLYLKDLWTTFIDMQWRYKLLLFSATFAGTWFLFGVVWYLVAVAHGDLLELGPPANHTPCVVQVHTLTGAFLFSLESQTTIGYGFRYISEECPLAIVLLIAQLVLTTILEIFITGTFLAKIARPKKRAETIRFSQHAVVASHNGKPCLMIRVANMRKSLLIGCQVTGKLLQTHQTKEGENIRLNQVNVTFQVDTASDSPFLILPLTFYHVVDETSPLKDLPLRSGEGDFELVLILSGTVESTSATCQVRTSYLPEEILWGYEFTPAISLSASGKYIADFSLFDQVVKVASPSGLRDSTVRYGDPEKLKLEESLREQAEKEGSALSVRISNV
For B1, which fold bound against GST-N4-1 is on record?
The fold bound against GST-N4-1 was 2 fold.
